# In patent US20180037644A1 (Pfizer, published 2018):
# Residue numbers refer to the chain shown, from its start. Read-outs that look alike come from different tables or passages of the source.
# B1: IL33-12 (antibody, human IgG1, kappa, V domains shown)
# VH: EVQLVESGGGLVQPGGSLRLSCAASGFTFSSYWMYWVRQAPGKGLEWVASINNDGGNTYYLDSVKGRFTISRDNAKNSLYLQMNSLRAEDTAVYYCARGHYYYTSYSLGYWGQGTLVTVSS
# VL: DIQMTQSPSSLSASVGDRVTITCKASQNINKHLDWYQQKPGKAPKLLIYFTNNLQTGVPSRFSGSGSGTDFTLTISSLQPEDFATYYCFQYNNGWTFGGGTKVEIKR
# B2: IL33-117 (antibody, human IgG1, kappa, V domains shown)
# VH: B1 VH with N52T, N53P, D54N, N57E, T58D, L61P
# VL: B1 VL
# B3: IL33-45 (antibody, human IgG1, kappa, V domains shown)
# VH: B1 VH with N52T, N53P, L61P
# VL: B1 VL
# B4: IL33-103 (antibody, human IgG1, kappa, V domains shown)
# VH: B1 VH with S50A, N52T, N53P, D54N, N57E, L61P
# VL: B1 VL
# B5: IL33-265 Fab (Fab, V domains shown)
# VH: EVQLVESGGNLEQPGGSLRLSCTASGFTFSRSAMNWVRRAPGKGLEWVSGISGSGGRTYYADSVKGRFTISRDNSKNTLYLQMNSLSAEDTAAYYCAKDSYTTSWYGGMDVWGHGTTVTVSS
# VL: DIQMTQSPSSVSASVGDRVTITCRASQGIFSWLAWYQQKPGKAPKLLIYAASSLQSGVPSRFSGSGSGTDFTLTISSLQPEDFAIYYCQQANSVPITFGQGTRLEIKR
# notes: Fab fragment
# B6: IL33-10 (antibody, human IgG1, kappa)
# heavy: not shown
# light: DIQMTQSPSSLSASVGDRVTITCKASQNINKHLDWYQQKPGKAPKLLIYFTNNLQTGVPSRFSGSGSGTDFTLTISSLQPEDFATYYCFQYNNGWTFGGGTKVEIKRTVAAPSVFIFPPSDEQLKSGTASVVCLLNNFYPREAKVQWKVDNALQSGNSQESVTEQDSKDSTYSLSSTLTLSKADYEKHKVYACEVTHQGLSSPVTKSFNRGEC
# B7: IL33-167LS (antibody, human IgG1, kappa)
# heavy: EVQLVESGGGLVQPGGSLRLSCAASGFTFSSYWMYWVRQAPGKGLEWVASITPNAGEDYYPDSVKGRFTISRDNAKNSLYLQMNSLRAEDTAVYYCARGHYYYTSYSLGYWGQGTLVTVSSASTKGPSVFPLAPSSKSTSGGTAALGCLVKDYFPEPVTVSWNSGALTSGVHTFPAVLQSSGLYSLSSVVTVPSSSLGTQTYICNVNHKPSNTKVDKKVEPKSCDKTHTCPPCPAPEAAGAPSVFLFPPKPKDTLMISRTPEVTCVVVDVSHEDPEVKFNWYVDGVEVHNAKTKPREEQYNSTYRVVSVLTVLHQDWLNGKEYKCKVSNKALPAPIEKTISKAKGQPREPQVYTLPPSREEMTKNQVSLTCLVKGFYPSDIAVEWESNGQPENNYKTTPPVLDSDGSFFLYSKLTVDKSRWQQGNVFSCSVLHEALHSHYTQKSLSLSPG
# light: B6 light
# B8: IL33-310 (antibody, human IgG4 S228P, kappa, V domains shown)
# VH: EVQLVESGGGLVQPGGSLRLSCAASGFTFSSFSMSWVRQAPGKGLEWVATISGGKTFTDYVDSVKGRFTISRDDSKNTLYLQMNSLRAEDTAVYYCTRANYGNWFFEVWGQGTLVTVSS
# VL: EIVLTQSPATLSLSPGERATLSCRASESVAKYGLSLLNWFQQKPGQPPRLLIFAASNRGSGIPARFSGSGSGTDFTLTISSLEPEDFAVYYCQQSKEVPFTFGQGTKVEIKR
# Legend:
# [1] = target: T1, cynomolgus monkey IL-33 (cys mut) (cynomolgus monkey); test: cell-based or functional assay
# T1 chain: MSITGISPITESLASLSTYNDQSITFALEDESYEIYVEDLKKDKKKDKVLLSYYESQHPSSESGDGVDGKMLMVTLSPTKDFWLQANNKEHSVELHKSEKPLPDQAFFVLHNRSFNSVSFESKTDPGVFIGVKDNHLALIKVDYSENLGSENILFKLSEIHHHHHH
# [2] = target: T2, human IL-33 (mm2) (human, UniProt O95760 112-270); test: cell-based or functional assay
# T2 chain: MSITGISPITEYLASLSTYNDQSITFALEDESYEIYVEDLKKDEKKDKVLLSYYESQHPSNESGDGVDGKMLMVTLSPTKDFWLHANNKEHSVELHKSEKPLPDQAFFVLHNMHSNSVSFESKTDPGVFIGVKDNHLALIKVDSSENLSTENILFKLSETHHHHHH
# [3] = target: T1, cynomolgus monkey IL-33 (cys mut); test: cell-based or functional assay
# [4] = target: T2, human IL-33 (mm2); test: cell-based or functional assay
# [5] = target: T3, human IL-33 WT (R&D) (human, UniProt O95760 112-270); test: cell-based or functional assay
# T3 sequence: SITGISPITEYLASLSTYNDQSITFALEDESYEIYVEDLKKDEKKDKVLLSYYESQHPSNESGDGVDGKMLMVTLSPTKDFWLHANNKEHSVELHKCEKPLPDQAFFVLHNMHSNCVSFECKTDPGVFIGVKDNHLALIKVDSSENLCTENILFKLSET
# [6] = target: T1, cynomolgus monkey IL-33 (cys mut); test: cell-based or functional assay
# [7] = target: T2, human IL-33 (mm2); test: cell-based or functional assay
# [8] = target: T4, wild-type cynomolgus monkey IL-33 (cynomolgus monkey); test: SPR, Experiment 2; reference: human IL-33 (WT + DTT)
# T4 construct: Used reduced (DTT-treated); His6 in the entry; also called cyno IL-33 (WT + DTT); pfe cyno WT IL-33
# T4 chain: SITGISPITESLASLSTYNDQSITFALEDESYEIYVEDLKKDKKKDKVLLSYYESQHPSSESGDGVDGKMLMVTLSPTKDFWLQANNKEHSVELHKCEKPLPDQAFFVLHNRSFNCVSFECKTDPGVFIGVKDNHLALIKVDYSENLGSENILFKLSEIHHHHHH
# Method: (§1) Biacore kinetic assays were conducted at 37° C. at a collection rate of 1 Hz on a Biacore T200 instrument (GE Healthcare). Reduced and non-reduced wild-type human IL-33 and reduced wild-type cynomolgus monkey IL-33 were covalently coupled to a CM5 sensor chip (catalogue number BR100530, GE Healthcare) using an amine coupling kit (catalogue number BR100050, GE Healthcare) according to the manufacturer's protocol. Flow cell 1 was activated and blocked for use as a reference flow cell. […] The dilution and running buffer was HBS-EP+(10 mM HEPES pH 7.4, 0.15M NaCl, 3 mM EDTA, 0.05% P-20). Rate constants and affinities were determined by fitting the resulting sensorgram data to a 1:1 model in Biacore T200 Evaluation software version 1.0 (GE Healthcare). […] Kinetic properties of the bivalent IgG cannot be directly compared to those of monovalent Fab fragments and are not presented here.
# [9] = target: T4, wild-type cynomolgus monkey IL-33; test: SPR, IL-33 amine-coupled to CM5, Fab in solution, 37 C, Experiment 2
# Method: as §1
# [10] = target: T5, human IL-33 WT, reduced with DTT (human, UniProt O95760 112-270); test: as above
# T5 construct: Wild-type cysteines, FLAG tag in the entry; reduced with 3 mM DTT before use; also called huIL33 wt; hu IL-33 (WT + DTT)
# T5 sequence: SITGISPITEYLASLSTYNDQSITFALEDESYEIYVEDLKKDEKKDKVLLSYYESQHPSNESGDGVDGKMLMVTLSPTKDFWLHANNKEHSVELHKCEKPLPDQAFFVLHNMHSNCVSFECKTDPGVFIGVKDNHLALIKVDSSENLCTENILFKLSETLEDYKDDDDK
# Method: as §1
# [11] = target: T3, human IL-33 WT (R&D); test: cell-based or functional assay; remark: listed apart in the source
# [12] = target: T1, cynomolgus monkey IL-33 (cys mut); test: cell-based or functional assay
# [13] = target: T2, human IL-33 (mm2); test: cell-based or functional assay
# [14] = target: T3, human IL-33 WT (R&D); test: cell-based or functional assay; remark: listed apart in the source
# [15] = target: T4, wild-type cynomolgus monkey IL-33; test: cell-based or functional assay
# [16] = target: T1, cynomolgus monkey IL-33 (cys mut); test: cell-based or functional assay
# [17] = target: T2, human IL-33 (mm2); test: cell-based or functional assay
# [18] = target: T3, human IL-33 WT (R&D); test: cell-based or functional assay; remark: listed apart in the source
# [19] = target: T2, human IL-33 (mm2); test: cell-based or functional assay
# [20] = target: T2, human IL-33 (mm2); test: cell-based or functional assay
# [21] = target: T3, human IL-33 WT (R&D); test: cell-based or functional assay; remark: listed apart in the source
# [22] = target: T4, wild-type cynomolgus monkey IL-33; test: cell-based or functional assay
# [23] = target: T1, cynomolgus monkey IL-33 (cys mut); test: cell-based or functional assay
# [24] = target: T2, human IL-33 (mm2); test: cell-based or functional assay
binder,measurement,setting,value
B1,"IC50, HEK293 ST2 NFkB",[1],0.943 nM
same,"IC50, HEK293 ST2 NFkB",[2],0.14 nM
same,"IC50, HEK293 ST2 NFkB",[3],3.46 nM
same,"IC50, HEK293 ST2 NFkB",[4],0.144 nM
B2,"IC50, HEK293 ST2 NFkB WT IL-33",[5],0.155 nM
same,"IC50, HEK293 ST2 NFkB cyno IL-33",[6],0.052 nM
same,"IC50, whole blood IFNγ",[7],0.106 nM
B3,"IC50, HEK293 ST2 NFkB",[1],0.535 nM
same,"IC50, HEK293 ST2 NFkB",[2],0.325 nM
B4,"IC50, HEK293 ST2 NFkB WT IL-33",[5],0.178 nM
same,"IC50, HEK293 ST2 NFkB cyno IL-33",[6],0.07 nM
same,"IC50, HEK293 ST2 NFkB mm2",[7],0.028 nM
same,"IC50, whole blood IFNγ",[7],0.104 nM
B5,Ratio of cynomolgus monkey KD/human KD,[8],57.8
same,Kd,[9],1.62 nM
same,koff,[9],0.0038 s⁻¹
same,kon,[9],2.58e+06 M⁻¹ s⁻¹
same,Kd,[10],0.028 nM
same,koff,[10],8.07e-05 s⁻¹
same,kon,[10],2.89e+06 M⁻¹ s⁻¹
B6,"IC50, HEK293 ST2 NFkB",[3],0.132 nM
same,"IC50, HEK293 ST2 NFkB",[4],0.017 nM
same,"IC50, HEK293 ST2 NFkB WT IL-33",[5],0.117 nM
same,"IC50, HEK293 ST2 NFkB cyno IL-33",[6],0.059 nM
same,"IC50, HEK293 ST2 NFkB mm2",[7],0.031 nM
same,"IC50, whole blood IFNγ",[7],0.121 nM
B7,"IC50, HEK293 ST2 NFkB",[11],0.685 nM
same,"IC50, HEK293 ST2 NFkB",[12],0.162 nM
same,"IC50, HEK293 ST2 NFkB",[13],0.13 nM
same,"IC50, HEK293 ST2 NFkB (DTT-pretreated IL-33)",[14],0.25 nM
same,Cynomolgus monkey:human IC50 ratio: wild-type IL-33,[15],6.2
same,"IC50, HEK293 ST2 NFkB (DTT-pretreated IL-33)",[15],1.56 nM
same,Cynomolgus monkey:human IC50 ratio: cysteine mutant IL-33,[16],1
same,"IC50, HEK293 ST2 NFkB",[16],0.036 nM
same,"IC50, HEK293 ST2 NFkB",[17],0.037 nM
same,"IC50, human whole blood",[18],0.451 nM
same,"IC50, human whole blood",[19],0.013 nM
same,"IC50, IFN-γ production in human PBMC",[20],0.0011 nM
B8,"IC50, HEK293 ST2 NFkB",[21],0.021 nM
same,Cynomolgus monkey:human IC50 ratio: wild-type IL-33,[22],104
same,"IC50, HEK293 ST2 NFkB",[22],2.19 nM
same,Cynomolgus monkey:human IC50 ratio: cysteine mutant IL-33,[23],29.2
same,"IC50, HEK293 ST2 NFkB",[23],0.213 nM
same,"IC50, HEK293 ST2 NFkB",[24],0.007 nM
same,"IC50, HEK293 ST2 NFkB (DTT-pretreated IL-33)",[14],0.061 nM
same,Cynomolgus monkey:human IC50 ratio: wild-type IL-33,[15],27.1
same,"IC50, HEK293 ST2 NFkB (DTT-pretreated IL-33)",[15],1.64 nM
same,Cynomolgus monkey:human IC50 ratio: cysteine mutant IL-33,[16],32.5
same,"IC50, HEK293 ST2 NFkB",[16],0.59 nM
same,"IC50, HEK293 ST2 NFkB",[17],0.018 nM
